From patent US20010034326A1 (UNIVERSITY OF NEW MEXICO, published 2001)
Like-named read-outs stand apart in the source and are kept apart here. Bridge positions count the residues as written; N and C are the ends. Ends that are not written are not given here.

What was measured:
[1] = target: T1, ICAM-1 expressed on cells (JY cells; stimulated endothelial cells) (UniProt P05362 28-532, limits assumed); assay: cell-based or functional assay
[2] = target: T1, ICAM-1 expressed on cells (JY cells; …); assay: cell-based or functional assay; remark: listed apart in the source
[3] = target: T1, ICAM-1 expressed on cells (JY cells; …); assay: cell-based or functional assay; remark: listed apart in the source
[4] = target: T1, ICAM-1 expressed on cells (JY cells; …); assay: cell-based or functional assay; remark: listed apart in the source
[5] = target: T2, ICAM-1 (intracellular adhesion molecule 1), as used in the ELISA of monovalent ICAM-1 binding (human, UniProt P05362 28-480, limits assumed); assay: ELISA of monovalent ICAM-1 binding; for example inhibition of 84H10 binding to ICAM-1
T2 construct: also called purified ICAM-1
T2 sequence (P05362 28-480 limits assumed): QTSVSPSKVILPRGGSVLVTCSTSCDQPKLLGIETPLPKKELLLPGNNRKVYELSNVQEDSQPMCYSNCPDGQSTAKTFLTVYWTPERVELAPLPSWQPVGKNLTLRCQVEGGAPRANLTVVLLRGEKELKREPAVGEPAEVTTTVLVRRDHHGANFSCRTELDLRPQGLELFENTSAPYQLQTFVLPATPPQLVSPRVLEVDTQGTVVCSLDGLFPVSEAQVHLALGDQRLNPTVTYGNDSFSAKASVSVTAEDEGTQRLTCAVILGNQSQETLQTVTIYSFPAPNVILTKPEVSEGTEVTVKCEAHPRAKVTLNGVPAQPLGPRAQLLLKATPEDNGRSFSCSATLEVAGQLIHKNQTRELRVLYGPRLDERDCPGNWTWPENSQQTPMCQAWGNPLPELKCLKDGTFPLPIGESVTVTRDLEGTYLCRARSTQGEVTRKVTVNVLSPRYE

T1 sequence (P05362 28-532 limits assumed): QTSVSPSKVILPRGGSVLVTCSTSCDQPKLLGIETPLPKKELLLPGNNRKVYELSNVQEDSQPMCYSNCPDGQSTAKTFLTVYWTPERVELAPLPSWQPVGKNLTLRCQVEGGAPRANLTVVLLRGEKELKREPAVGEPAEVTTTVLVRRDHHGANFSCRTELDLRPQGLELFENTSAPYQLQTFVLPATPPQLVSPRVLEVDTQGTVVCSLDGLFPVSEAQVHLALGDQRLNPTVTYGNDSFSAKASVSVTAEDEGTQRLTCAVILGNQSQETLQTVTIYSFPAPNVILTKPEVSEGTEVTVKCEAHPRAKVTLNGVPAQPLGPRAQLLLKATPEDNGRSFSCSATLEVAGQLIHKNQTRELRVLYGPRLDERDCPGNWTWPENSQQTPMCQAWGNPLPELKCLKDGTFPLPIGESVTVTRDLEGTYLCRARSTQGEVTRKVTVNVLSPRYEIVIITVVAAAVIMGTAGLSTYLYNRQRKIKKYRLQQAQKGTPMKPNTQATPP

Binder | Percent Inhibition [1] | Percent JY Aggregation [1] | Percent Inhibition [2] | Percent JY Aggregation [2] | other results
CLIRMRSAC (disulfide 1-9) [CLIRMRSAC (SEQ ID NO: 44), cyclic disulfide-linked peptide] | 93 percent | 4 percent |  |  | 
CLLRMRSLC (disulfide 1-9) [CLLRMRSLC (SEQ ID NO: 47), cyclic disulfide-linked peptide] | -12 percent | 61 percent |  |  | 
CLLRMRSVC (disulfide 1-9) [CLLRMRSVC (SEQ ID NO: 48), cyclic disulfide-linked peptide] | 92 percent | 4 percent |  |  | 
CLLRMASIC (disulfide 1-9) [CLLRMASIC (SEQ ID NO: 38), cyclic disulfide-linked peptide] |  |  | 11 percent | 68 percent | 
CLARMRSIC (disulfide 1-9) [CLARMRSIC (SEQ ID NO: 35), cyclic disulfide-linked peptide] |  |  | 9 percent | 69 percent | 
CILRMRSAC (disulfide 1-9) [CILRMRSAC (SEQ ID NO: 43), cyclic disulfide-linked peptide] | 92 percent | 4 percent |  |  | 
CLLRMRSAC (disulfide 1-9) [CLLRMRSAC (SEQ ID NO: 40), cyclic disulfide-linked peptide] |  |  | 61 percent | 29 percent | 
CLLRMRAIC (disulfide 1-9) [CLLRMRAIC (SEQ ID NO: 39), cyclic disulfide-linked peptide] |  |  | 27 percent | 56 percent | 
CLVRMRSAC (disulfide 1-9) [CLVRMRSAC (SEQ ID NO: 41), cyclic disulfide-linked peptide] | 0 percent | 55 percent |  |  | 
CLLRARSIC (disulfide 1-9) [CLLRARSIC (SEQ ID NO: 37), cyclic disulfide-linked peptide] |  |  | 5 percent | 72 percent | 
CLLKMRSAC (disulfide 1-9) [CLLKMRSAC (SEQ ID NO: 45), cyclic disulfide-linked peptide] | 94 percent | 3 percent |  |  | 
CLLRMKSAC (disulfide 1-9) [CLLRMKSAC (SEQ ID NO: 46), cyclic disulfide-linked peptide] | 90 percent | 6 percent |  |  | Cells/mm^2, firm attachment of neutrophils to stimulated endothelial cells in a parallel plate flow chamber [3]: 283 cells/mm^2; Percent Inhibition of firm attachment of neutrophils to stimulated endothelial cells [3]: 66 percent
CALRMRSIC (disulfide 1-9) [CALRMRSIC (SEQ ID NO: 34), cyclic disulfide-linked peptide] |  |  | 7 percent | 71 percent | 
CVLRMRSAC (disulfide 1-9) [CVLRMRSAC (SEQ ID NO: 42), cyclic disulfide-linked peptide] | 56 percent | 24 percent |  |  | 
CLRLSRIMC (disulfide 1-9) [randomized cyclic peptide CLRLSRIMC (SEQ ID NO: 56)] | -3.6 percent | 57 percent | 4 percent | 74 percent | Cells/mm^2, firm attachment of neutrophils to stimulated endothelial cells in a parallel plate flow chamber [3]: 617 cells/mm^2; Percent Inhibition of firm attachment of neutrophils to stimulated endothelial cells [3]: 25 percent
CLLRMRSIC (disulfide 1-9, Synthesized by Biopeptide; consensus derived from phage display on ICAM-1) [consensus peptide CLLRMRSIC (SEQ ID NO: 1), cyclized in the disulfide-linked form] | 45 percent | 30 percent | 46 percent | 41 percent | IC50, inhibition of JY cell aggregation [4]: 500 µM; IC50 for cell aggregation [4]: 800 µM; Cells/mm^2, firm attachment of neutrophils to stimulated endothelial cells in a parallel plate flow chamber [3]: 439 cells/mm^2; Percent Inhibition of firm attachment of neutrophils to stimulated endothelial cells [3]: 47 percent; IC50 [5]: 0.25 µM
